Test results: patent US20240132578A1

Assays:
Experiment in all cases: cell-based or functional assay
[1] = target: HIV-1 Env of pseudovirus MGRM-F1-004 (clade F) (HIV-1)
[2] = target: HIV-1 Env of isolate THR0.18 (Acute), clade B (HIV-1)
[3] = target: HIV-1 MGRM-AE-001 Env (pseudovirus) (HIV-1)
[4] = target: HIV-1 Env of isolate 93IN905 (Clade C) (HIV-1)
[5] = target: aMLV envelope on pseudovirus (negative control)
[6] = target: HIV-1 envelope glycoprotein (Env) of isolate 93IN905 (HIV-1)
[7] = target: HIV-1 MGRM-AE-004 Env (pseudovirus) (HIV-1)
[8] = target: HIV-1 Env of pseudovirus MGRM-G-025 (HIV-1)
[9] = target: HIV-1 Env of isolate MGRM-A-006 (clade A pseudovirus) (HIV-1)
[10] = target: HIV-1 Env of isolate APV_13, clade B (HIV-1)
[11] = target: HIV-1 Env of isolate SC422661.8 (Acute), clade B (HIV-1)
[12] = target: HIV-1 envelope glycoprotein (Env) of isolate MGRM-C-023 (HIV-1)
[13] = target: HIV-1 envelope glycoprotein (Env) of isolate MGRM-C-024 (HIV-1)
[14] = target: HIV-1 Env of isolate 92RW009 (clade A pseudovirus) (HIV-1)
[15] = target: HIV-1 Env of isolate MGRM-A-005 (clade A pseudovirus) (HIV-1)
[16] = target: HIV-1 Env of isolate VLGCB3, clade B (HIV-1)
[17] = target: HIV-1 Env of pseudovirus MGRM-G-017 (HIV-1)
[18] = target: HIV-1 MGRM-AG-013 Env (pseudovirus) (HIV-1)

1443_C16 (PG16) (TCN-116) (antibody), sequence (VH): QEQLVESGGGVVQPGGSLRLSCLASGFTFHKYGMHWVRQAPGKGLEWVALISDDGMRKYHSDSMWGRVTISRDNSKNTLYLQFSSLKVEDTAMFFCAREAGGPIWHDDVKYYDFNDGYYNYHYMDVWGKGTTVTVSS
1443_C16 (PG16) (TCN-116) (antibody), sequence (VL): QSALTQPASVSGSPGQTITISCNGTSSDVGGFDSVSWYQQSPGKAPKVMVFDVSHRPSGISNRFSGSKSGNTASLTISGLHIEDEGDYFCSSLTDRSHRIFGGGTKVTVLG

| Substance | IC50 [1] [µg/mL] | IC50 (µg/ml), pseudovirus neutralization [2] [µg/mL] | IC50 (µg/ml), pseudovirus neutralization [3] [µg/mL] | IC90 (neutralization of pseudovirus) [4] [µg/mL] | neutralization IC50 [5] [µg/mL] | IC50 (µg/ml), pseudovirus neutralization [6] [µg/mL] | IC50 (µg/ml), pseudovirus neutralization [7] [µg/mL] | IC50 (µg/ml), pseudovirus neutralization [8] [µg/mL] | IC50 (µg/ml), pseudovirus neutralization [9] [µg/mL] | IC50 (µg/ml), pseudovirus neutralization [10] [µg/mL] | IC50 (µg/ml), pseudovirus neutralization [11] [µg/mL] | IC50 (µg/ml), pseudovirus neutralization [12] [µg/mL] | IC50 (µg/ml), pseudovirus neutralization [13] [µg/mL] | IC50 (µg/ml), pseudovirus neutralization [14] [µg/mL] | IC50 (µg/ml), pseudovirus neutralization [15] [µg/mL] | IC50 (µg/ml), pseudovirus neutralization [16] [µg/mL] | IC50 (µg/ml), pseudovirus neutralization [17] [µg/mL] | IC50 (µg/ml), pseudovirus neutralization [18] [µg/mL] |
| --- | --- | --- | --- | --- | --- | --- | --- | --- | --- | --- | --- | --- | --- | --- | --- | --- | --- | --- |
| 4E10 (antibody) | 2.74 | 4.68 | 0.85 | 12.8 | > 50 | 1.26 | 1.27 | 1.7 | 9.87 | 7.33 | 6.35 | 1.95 | 22.6 | > 50 | 4.09 | 5.76 | 1.14 | 2.61 |
| 1443_C16 (PG16) (TCN-116) (antibody) | 0.43 | 1.34 | 4.33 | > 50 | > 50 | 0.25 | 0.002 | > 50 | > 50 | > 50 | 1.13 | 0.09 | 0.04 | 0.11 | 0.09 | 0.4 | 0.02 | 0.31 |
| b12 (antibody) | > 50 | 3.62 | 25.9 | > 50 | > 50 | 21.4 | > 50 | > 50 | 13.6 | > 50 | 6.11 | 13.9 | > 50 | > 50 | 3.64 | 0.15 | > 50 | > 50 |
